The target of series [1] is T1, EsCas13d, nuclease-dead (Eubacterium siraeum, UniProt B0MS50, R295A;H300A;R849A;H854A).
T1 sequence: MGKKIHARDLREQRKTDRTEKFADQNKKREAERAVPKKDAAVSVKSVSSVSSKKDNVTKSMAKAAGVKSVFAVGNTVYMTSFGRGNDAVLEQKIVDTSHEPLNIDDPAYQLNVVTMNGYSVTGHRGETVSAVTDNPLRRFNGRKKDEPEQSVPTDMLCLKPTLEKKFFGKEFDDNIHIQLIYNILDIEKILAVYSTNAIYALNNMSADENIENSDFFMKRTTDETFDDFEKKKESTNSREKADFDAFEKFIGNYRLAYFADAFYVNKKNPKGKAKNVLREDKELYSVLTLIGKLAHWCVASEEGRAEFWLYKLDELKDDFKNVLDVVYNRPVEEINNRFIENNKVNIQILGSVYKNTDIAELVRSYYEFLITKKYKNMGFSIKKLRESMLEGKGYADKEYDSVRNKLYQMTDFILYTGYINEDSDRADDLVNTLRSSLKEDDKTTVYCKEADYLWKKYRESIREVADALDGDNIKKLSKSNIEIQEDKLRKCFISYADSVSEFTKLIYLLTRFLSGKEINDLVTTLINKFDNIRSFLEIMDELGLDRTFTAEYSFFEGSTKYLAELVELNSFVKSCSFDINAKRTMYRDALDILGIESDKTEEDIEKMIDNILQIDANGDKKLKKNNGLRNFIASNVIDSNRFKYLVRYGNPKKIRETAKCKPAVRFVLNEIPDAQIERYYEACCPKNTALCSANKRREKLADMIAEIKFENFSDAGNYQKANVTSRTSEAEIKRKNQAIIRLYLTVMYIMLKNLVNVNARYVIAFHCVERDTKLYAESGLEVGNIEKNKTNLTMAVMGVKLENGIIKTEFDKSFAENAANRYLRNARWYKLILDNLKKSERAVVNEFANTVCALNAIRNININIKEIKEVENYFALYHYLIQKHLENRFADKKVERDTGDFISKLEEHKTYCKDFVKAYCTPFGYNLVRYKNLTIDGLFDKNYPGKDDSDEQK
Description: BLI; crRNA (strand 1, pre-loaded); Mg2+; 40 mM Tris-HCl pH 7.5, 150 mM NaCl, 6 mM MgCl2, 1 mM DTT, 0.1% Tween-20, 0.2 mg/ml BSA; temperature not stated. As to conditions: tags: His6-TwinStrep-SUMO cleaved; label: 3' biotin on strand 2. A general note: Biolayer interferometry detects binding as a change in optical thickness at a sensor tip.

In series [2] the target is T1, EsCas13d, nuclease-dead. The series is described as above. As to conditions: tags: His6-TwinStrep-SUMO cleaved; label: 3' biotin on strand 2. The source holds these as a separate data set.
For series [3], the target named is T1, EsCas13d, nuclease-dead. Description: crRNA (strand 1, pre-loaded); Mg2+; 40 mM Tris-HCl pH 7.5, 150 mM NaCl, 6 mM MgCl2, 1 mM DTT, 0.1% Tween-20, 0.2 mg/ml BSA; 25 C; 10 min per concentration, then washed. As to conditions: tags: His6-TwinStrep-SUMO cleaved; N-terminal SNAP kept (SNAP-Surface 488); label: 3' end held by stalled T7 RNA polymerase.

B1: crRNA-2 (MT) target (mixed)
RNA 1: CACCCGUGCAAAAUUGCAGGGGUCUAAAACCUUGAAGUUUUCCAAGUGCACU
RNA 2: UCCACAGCAAGUGCACUUGGAAAACUUCAAGAUGUGGUCA
As for B1, the Kd (commonly the free concentration of one partner at which half of the binding sites on the other are occupied at equilibrium, for simple one-to-one binding) in series [1] was determined as 3 nM.

B2: target 1 MT (60-mer) (mixed)
RNA 1: CACCCGUGCAAAAAUGCAGGGGUCUAAAACUGAGCGGAUAACCUCUCUAUGG
RNA 2: CCACAUCUACGAAUUCGUACCAUAGAGAGGUUAUCCGCUCACCGAGAUCGGAAGAGCACA
Regarding B2, in series [2], the koff (in general, the rate constant with which the complex falls apart) amounted to 0.00052 s⁻¹ and the kon (in general, the second-order rate constant of association) is 170000 M⁻¹ s⁻¹.

B3: target 1 C4A (60-mer) (mixed)
RNA 1: CACCCGUGCAAAAAUGCAGGGGUCUAAAACUGAGCGGAUAACCUCUCUAUGG
RNA 2: CCACAUCUACGAAUUCGUACCAUAGAGAGGUUAUCCGAUCACCGAGAUCGGAAGAGCACA
On to B3, for which, in series [2], the koff was 0.00035 s⁻¹ and the kon was 220000 M⁻¹ s⁻¹. This molecule also had a dissociation constant Kd in series [1] of 1.6 nM.

B4: target 1 C2G (60-mer) (mixed)
RNA 1: CACCCGUGCAAAAAUGCAGGGGUCUAAAACUGAGCGGAUAACCUCUCUAUGG
RNA 2: CCACAUCUACGAAUUCGUACCAUAGAGAGGUUAUCCGCUGACCGAGAUCGGAAGAGCACA
In series [2], B4 had a koff of 0.0004 s⁻¹ and a kon of 200000 M⁻¹ s⁻¹. Binding in series [1] was characterised by a dissociation constant (Kd) of 2 nM.

B5: target 1 MT 5'PFS UUG 3'PFS UGU (mixed)
RNA 1: CACCCGUGCAAAAAUGCAGGGGUCUAAAACUGAGCGGAUAACCUCUCUAUGG
RNA 2: GGGAAUGGAUCCACAUCUACGAAUUCUUGCCAUAGAGAGGUUAUCCGCUCAUGUAGAUCGGAAGAGCACACGU
In the case of B5, binding in series [3] was put at a Kd of 51 ± 11.5 nM.

B6: target 1 MT 5'PFS GGA 3'PFS AGA (mixed)
RNA 1: CACCCGUGCAAAAAUGCAGGGGUCUAAAACUGAGCGGAUAACCUCUCUAUGG
RNA 2: GGGAAUGGAUCCACAUCUACGAAUUCGGACCAUAGAGAGGUUAUCCGCUCAAGAAGAUCGGAAGAGCACACGU
For the molecule B6, the Kd in series [3] came to 20.5 ± 2.75 nM.

B7: target 1 MT 5'PFS GCU 3'PFS UAG (mixed)
RNA 1: CACCCGUGCAAAAAUGCAGGGGUCUAAAACUGAGCGGAUAACCUCUCUAUGG
RNA 2: GGGAAUGGAUCCACAUCUACGAAUUCGCUCCAUAGAGAGGUUAUCCGCUCAUAGAGAUCGGAAGAGCACACGU
In series [3], B7 showed a Kd of about 95 nM.

B8: target 1 3'-UGG (60-mer) (mixed)
RNA 1: CACCCGUGCAAAAAUGCAGGGGUCUAAAACUGAGCGGAUAACCUCUCUAUGG
RNA 2: CCACAUCUACGAAUUCGUACCAUAGAGAGGUUAUCCGCUCAUGGAGAUCGGAAGAGCACA
Regarding B8, in series [2], the koff was 0.0006 s⁻¹ and the kon amounted to 70000 M⁻¹ s⁻¹. In series [1], this molecule gave a Kd of 8.6 nM.

B9: target 1 C22A (60-mer) (mixed)
RNA 1: CACCCGUGCAAAAAUGCAGGGGUCUAAAACUGAGCGGAUAACCUCUCUAUGG
RNA 2: CCACAUCUACGAAUUCGUAACAUAGAGAGGUUAUCCGCUCACCGAGAUCGGAAGAGCACA
Turning to B9, in series [2], the koff came to 0.00066 s⁻¹ and the kon is 190000 M⁻¹ s⁻¹. Also, binding in series [1] was put at a Kd of 3.6 nM.

B10: target 1 3'-GGU (60-mer) (mixed)
RNA 1: CACCCGUGCAAAAAUGCAGGGGUCUAAAACUGAGCGGAUAACCUCUCUAUGG
RNA 2: CCACAUCUACGAAUUCGUACCAUAGAGAGGUUAUCCGCUCAGGUAGAUCGGAAGAGCACA
In series [2], B10 returned a koff of 0.00084 s⁻¹ and a kon of 120000 M⁻¹ s⁻¹. The molecule also had a Kd in series [1] of 7.1 nM.

B11: target 1 5'-UAA (60-mer) (mixed)
RNA 1: CACCCGUGCAAAAAUGCAGGGGUCUAAAACUGAGCGGAUAACCUCUCUAUGG
RNA 2: CCACAUCUACGAAUUCUAACCAUAGAGAGGUUAUCCGCUCACCGAGAUCGGAAGAGCACA
In series [2], B11 showed a koff of 0.00061 s⁻¹ and a kon of 100000 M⁻¹ s⁻¹. This molecule also came in with a Kd in series [1] of 6 nM.

B12: target 1 G5U (60-mer) (mixed)
RNA 1: CACCCGUGCAAAAAUGCAGGGGUCUAAAACUGAGCGGAUAACCUCUCUAUGG
RNA 2: CCACAUCUACGAAUUCGUACCAUAGAGAGGUUAUCCUCUCACCGAGAUCGGAAGAGCACA
In series [2], B12 returned a koff of 0.00042 s⁻¹ and a kon of 45000 M⁻¹ s⁻¹. Also, the Kd in series [1] stood at 9.3 nM.

B13: target 1 A20C (60-mer) (mixed)
RNA 1: CACCCGUGCAAAAAUGCAGGGGUCUAAAACUGAGCGGAUAACCUCUCUAUGG
RNA 2: CCACAUCUACGAAUUCGUACCCUAGAGAGGUUAUCCGCUCACCGAGAUCGGAAGAGCACA
For B13, in series [2], the koff turned out to be 0.00063 s⁻¹ and the kon worked out at 100000 M⁻¹ s⁻¹. In addition, the Kd in series [1] was found to be 6.3 nM.

B14: target 1 MT 5'PFS GCC 3'PFS UGC (mixed)
RNA 1: CACCCGUGCAAAAAUGCAGGGGUCUAAAACUGAGCGGAUAACCUCUCUAUGG
RNA 2: GGGAAUGGAUCCACAUCUACGAAUUCGCCCCAUAGAGAGGUUAUCCGCUCAUGCAGAUCGGAAGAGCACACGU
For B14, in series [3], binding was characterised by a dissociation constant (Kd) of 9 ± 1.35 nM.

B15: target 1 MT 5'PFS GCC 3'PFS UGA (mixed)
RNA 1: CACCCGUGCAAAAAUGCAGGGGUCUAAAACUGAGCGGAUAACCUCUCUAUGG
RNA 2: GGGAAUGGAUCCACAUCUACGAAUUCGCCCCAUAGAGAGGUUAUCCGCUCAUGAAGAUCGGAAGAGCACACGU
Regarding B15, in series [3], the Kd is 11.8 ± 2.3 nM.

B16: target 1 3'-UAA (60-mer) (mixed)
RNA 1: CACCCGUGCAAAAAUGCAGGGGUCUAAAACUGAGCGGAUAACCUCUCUAUGG
RNA 2: CCACAUCUACGAAUUCGUACCAUAGAGAGGUUAUCCGCUCAUAAAGAUCGGAAGAGCACA
B16: in series [2], the koff is 0.00061 s⁻¹ and the kon was 100000 M⁻¹ s⁻¹. This molecule registered a Kd in series [1] of 6 nM.

B17: target 1 U10G (60-mer) (mixed)
RNA 1: CACCCGUGCAAAAAUGCAGGGGUCUAAAACUGAGCGGAUAACCUCUCUAUGG
RNA 2: CCACAUCUACGAAUUCGUACCAUAGAGAGGUGAUCCGCUCACCGAGAUCGGAAGAGCACA
B17: in series [2], the koff worked out at 0.00051 s⁻¹ and the kon is 130000 M⁻¹ s⁻¹. In series [1], this molecule gave a Kd of 3.8 nM.

B18: target 1 MT 5'PFS GCU 3'PFS UAA (mixed)
RNA 1: CACCCGUGCAAAAAUGCAGGGGUCUAAAACUGAGCGGAUAACCUCUCUAUGG
RNA 2: GGGAAUGGAUCCACAUCUACGAAUUCGCUCCAUAGAGAGGUUAUCCGCUCAUAAAGAUCGGAAGAGCACACGU
Take B18: the Kd in series [3] was 49.5 ± 11 nM.

B19: target 1 A18G (60-mer) (mixed)
RNA 1: CACCCGUGCAAAAAUGCAGGGGUCUAAAACUGAGCGGAUAACCUCUCUAUGG
RNA 2: CCACAUCUACGAAUUCGUACCAUGGAGAGGUUAUCCGCUCACCGAGAUCGGAAGAGCACA
Take B19: in series [2], the koff was 0.00063 s⁻¹ and the kon is 73000 M⁻¹ s⁻¹. Besides, binding in series [1] was characterised by a dissociation constant (Kd) of 8.7 nM.

B20: target 1 G15A (60-mer) (mixed)
RNA 1: CACCCGUGCAAAAAUGCAGGGGUCUAAAACUGAGCGGAUAACCUCUCUAUGG
RNA 2: CCACAUCUACGAAUUCGUACCAUAGAAAGGUUAUCCGCUCACCGAGAUCGGAAGAGCACA
B20: in series [2], the koff stood at 0.0006 s⁻¹ and the kon is 180000 M⁻¹ s⁻¹. Further, in series [1], the affinity, expressed as Kd, was 3.4 nM.

B21: target 1 C7A (60-mer) (mixed)
RNA 1: CACCCGUGCAAAAAUGCAGGGGUCUAAAACUGAGCGGAUAACCUCUCUAUGG
RNA 2: CCACAUCUACGAAUUCGUACCAUAGAGAGGUUAUACGCUCACCGAGAUCGGAAGAGCACA
In series [2], B21 came in with a koff of 0.00045 s⁻¹ and a kon of 220000 M⁻¹ s⁻¹. Besides, the Kd in series [1] amounted to 2.1 nM.

B22: target 1 3'-GCU (60-mer) (mixed)
RNA 1: CACCCGUGCAAAAAUGCAGGGGUCUAAAACUGAGCGGAUAACCUCUCUAUGG
RNA 2: CCACAUCUACGAAUUCGUACCAUAGAGAGGUUAUCCGCUCAGCUAGAUCGGAAGAGCACA
Turning to B22, in series [1], binding was characterised by a dissociation constant (Kd) of 4.2 nM.

(Values after PMC10786891, “Massively parallel profiling of RNA-targeting CRISPR-Cas13d”.)
